Results reported in patent US20240360242A1 (KISOJI BIOTECHNOLOGY, published 2024).
Substitutions are numbered along the chain they refer to.

T1: TROP2 delta 27-56 on HEK cells (human, UniProt P09758 1-323)
T1 construct: Human TROP2 with residues 27-56 deleted, transiently transfected into HEK cells; also called TROP2 with 27-56 regions truncated
T1 chain: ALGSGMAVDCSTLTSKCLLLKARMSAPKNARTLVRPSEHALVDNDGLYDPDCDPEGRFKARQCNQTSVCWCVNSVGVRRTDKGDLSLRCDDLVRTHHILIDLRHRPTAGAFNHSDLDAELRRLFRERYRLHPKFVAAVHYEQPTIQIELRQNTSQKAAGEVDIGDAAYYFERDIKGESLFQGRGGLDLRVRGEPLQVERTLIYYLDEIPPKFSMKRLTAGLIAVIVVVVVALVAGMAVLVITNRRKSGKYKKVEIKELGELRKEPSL

T2: HEK-TROP2 Δ27-96 (human, UniProt P09758)
T2 construct: deletion of residues 27-96, transiently expressed on HEK cells
T2 sequence (membrane protein on transfected HEK cells, looked up): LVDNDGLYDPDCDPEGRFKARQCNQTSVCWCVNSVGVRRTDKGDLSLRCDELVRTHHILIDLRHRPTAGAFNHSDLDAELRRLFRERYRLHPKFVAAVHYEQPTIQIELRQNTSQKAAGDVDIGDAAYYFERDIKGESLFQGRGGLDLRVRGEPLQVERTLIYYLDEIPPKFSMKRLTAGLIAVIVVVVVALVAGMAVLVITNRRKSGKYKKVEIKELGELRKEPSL

T3: HEK-TROP2 Δ27-73 (human, UniProt P09758)
T3 construct: deletion of residues 27-73, transiently expressed on HEK cells
T3 sequence (membrane protein on transfected HEK cells, looked up): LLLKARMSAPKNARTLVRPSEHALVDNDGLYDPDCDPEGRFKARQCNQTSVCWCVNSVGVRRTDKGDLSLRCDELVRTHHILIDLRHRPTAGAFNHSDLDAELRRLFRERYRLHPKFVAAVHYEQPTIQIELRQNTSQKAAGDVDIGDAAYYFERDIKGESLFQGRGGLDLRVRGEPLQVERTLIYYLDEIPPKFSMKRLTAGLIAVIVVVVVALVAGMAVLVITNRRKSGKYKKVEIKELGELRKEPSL

T4: HEK-TROP2 Δ27-36
T4 construct: also called TROP2 delta 27-36
T4 membrane protein on transfected HEK cells: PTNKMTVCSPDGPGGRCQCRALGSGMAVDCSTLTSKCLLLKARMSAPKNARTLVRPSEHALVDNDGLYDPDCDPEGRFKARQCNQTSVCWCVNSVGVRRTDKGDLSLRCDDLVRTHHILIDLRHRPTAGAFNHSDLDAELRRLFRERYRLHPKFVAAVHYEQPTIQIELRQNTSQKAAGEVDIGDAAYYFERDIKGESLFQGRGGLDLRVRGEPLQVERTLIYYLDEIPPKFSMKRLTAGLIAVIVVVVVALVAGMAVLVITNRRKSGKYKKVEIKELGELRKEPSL

T5: HEK-TROP2 Δ27-44
T5 construct: also called TROP2 delta 27-44
T5 membrane protein on transfected HEK cells: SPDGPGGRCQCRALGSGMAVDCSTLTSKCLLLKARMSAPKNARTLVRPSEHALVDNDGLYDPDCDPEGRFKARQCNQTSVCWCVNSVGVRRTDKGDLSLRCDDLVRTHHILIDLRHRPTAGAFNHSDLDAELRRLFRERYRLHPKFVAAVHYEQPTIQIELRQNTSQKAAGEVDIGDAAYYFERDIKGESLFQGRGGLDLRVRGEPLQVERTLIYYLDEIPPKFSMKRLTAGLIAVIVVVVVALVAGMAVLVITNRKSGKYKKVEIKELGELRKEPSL

T6: HEK-TROP2 Δ27-114 (human, UniProt P09758)
T6 construct: deletion of residues 27-114, transiently expressed on HEK cells
T6 sequence (membrane protein on transfected HEK cells, looked up): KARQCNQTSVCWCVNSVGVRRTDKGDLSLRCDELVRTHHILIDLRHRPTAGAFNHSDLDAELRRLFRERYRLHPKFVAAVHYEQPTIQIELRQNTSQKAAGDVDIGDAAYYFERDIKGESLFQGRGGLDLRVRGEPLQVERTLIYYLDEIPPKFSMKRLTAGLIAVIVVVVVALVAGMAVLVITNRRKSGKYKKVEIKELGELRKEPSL

T7: HEK-TROP2 Δ27-126 (human, UniProt P09758)
T7 construct: deletion of residues 27-126, transiently expressed on HEK cells
T7 sequence (membrane protein on transfected HEK cells, looked up): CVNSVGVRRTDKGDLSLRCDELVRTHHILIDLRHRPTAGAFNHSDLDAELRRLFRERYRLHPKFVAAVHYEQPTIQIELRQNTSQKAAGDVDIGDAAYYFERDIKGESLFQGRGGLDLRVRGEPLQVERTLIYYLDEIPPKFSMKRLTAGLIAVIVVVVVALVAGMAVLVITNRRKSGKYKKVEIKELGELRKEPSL

B1: KD002 (antibody, human IgG1, V domains shown)
VH: QVQLQESGGGMVQVGGSLRLSCAASGFPFSSADMSWVRQAPGKGPEWVSYINADGSKTYYPDSVKGRFTISRDNAKNTLYLLMNNLKPEDTALYRCARAKLTDTHYVEDYWGQGTQVTVSS
notes: also called anti-TROP2 sdAb KD002
B2: KD003 (antibody, human IgG1, V domains shown)
VH: B1 VH with V14P, P28T, S31N, A32Y, D54G, K57N, Y59D, T78M
notes: also called anti-TROP2 sdAb KD003
B3: KD001 (antibody, human IgG1, V domains shown)
VH: QVQLQESGGGMVHPGGSLRLSCAASGFTFSGSDMSWVRQAPGKGPEWVSYITSGGTTYYPDSVKGRFTISRDNAKNTLYLQMNSLTPDDTALYRCAKARLTDSHYVEDAWGQGTQVTVSS
notes: also called anti-TROP2 sdAb KD001
B4: KD005 (antibody, human IgG1, V domains shown)
VH: B3 VH with M11L, H13E, P14A, T86K, A98S
notes: also called anti-TROP2 sdAb KD005
B5: KD004 (antibody, human IgG1, V domains shown)
VH: B3 VH with M11L, H13Q, G16R, S53G, G54S, I69T, T77M, T86K
notes: also called anti-TROP2 sdAb KD004
B6: KD007 (antibody, human IgG1, V domains shown)
VH: QVQLQESGGGLVQPGGSLRLSCAASGFAFSFYAMAWYRQAPGKQRDMVATITAYGNTNYADSVKGRFTTSRDNAKNTVYLQMNSLKPEDTAVYVCNANLPSASHNYWGQGTQVTVSS
notes: also called anti-TROP2 sdAb KD007

Target: T1, TROP2 delta 27-56 on HEK cells
Assay: flow cytometry, 100 nM antibody, transiently transfected HEK cells, APC anti-human Fc
Experimental: (§1) To determine the effect of TROP2 truncations on the binding ability of anti-TROP2 sdAbs, the HEK parental cells were transiently transfected with human TROP2 mutants by lipofectamine. 24 hours after transfection, cells were collected and stained with anti-TROP2 antibodies (FIG. 13A and FIG. 13B). In brief, 1×10⁵ cells were incubated with an Fc receptor blocking antibody (1/100 dilution) for 10 minutes at room temperature. Anti-TROP2 antibodies were diluted in FACS staining buffer to 100 nM and added and incubated with cells for 30 minutes on ice. After washing three times with FACS staining buffer, APC-conjugated secondary antibodies recognizing the human Fc region (Biolegend, Cat #410712) were mixed with cells. After staining for 30 minutes, cells were washed three times, followed by resuspension into 100 μL of 7-Amino-Actinomycin D (7-AAD) solution (BD Biosciences, Cat #559925).

| binding result | Binder |
| --- | --- |
| no binding (tested: 100 nM) | B1 |
| no binding (tested: 100 nM) | B2 |
| no binding (tested: 100 nM) | B3 |
| no binding (tested: 100 nM) | B4 |
| no binding (tested: 100 nM) | B5 |
| no binding (tested: 100 nM) | B6 |

target: T2, HEK-TROP2 Δ27-96; assay: as above
Experimental: as §1

| binding result | Binder |
| --- | --- |
| no binding (tested: 100 nM) | B1 |
| no binding (tested: 100 nM) | B2 |
| no binding (tested: 100 nM) | B3 |
| no binding (tested: 100 nM) | B4 |
| no binding (tested: 100 nM) | B5 |
| no binding (tested: 100 nM) | B6 |

target: T3, HEK-TROP2 Δ27-73; assay: as above
Experimental: as §1

| binding result | Binder |
| --- | --- |
| no binding (tested: 100 nM) | B1 |
| no binding (tested: 100 nM) | B2 |
| no binding (tested: 100 nM) | B3 |
| no binding (tested: 100 nM) | B4 |
| no binding (tested: 100 nM) | B5 |
| no binding (tested: 100 nM) | B6 |

Target: T4, HEK-TROP2 Δ27-36
Assay: as above
Experimental: as §1

| binding result | Binder |
| --- | --- |
| binds | B1 |
| binds | B2 |
| binds | B3 |
| binds | B4 |
| binds | B5 |
| no binding (tested: 100 nM) | B6 |

Target: T5, HEK-TROP2 Δ27-44
Assay: as above
Experimental: as §1

| binding result | Binder |
| --- | --- |
| binds | B1 |
| binds | B2 |
| binds | B3 |
| binds | B4 |
| binds | B5 |
| no binding (tested: 100 nM) | B6 |

target: T6, HEK-TROP2 Δ27-114; assay: as above
Experimental: as §1

| binding result | Binder |
| --- | --- |
| no binding (tested: 100 nM) | B1 |
| no binding (tested: 100 nM) | B2 |
| no binding (tested: 100 nM) | B3 |
| no binding (tested: 100 nM) | B4 |
| no binding (tested: 100 nM) | B5 |
| no binding (tested: 100 nM) | B6 |

target: T7, HEK-TROP2 Δ27-126; assay: as above
Experimental: as §1

| binding result | Binder |
| --- | --- |
| no binding (tested: 100 nM) | B1 |
| no binding (tested: 100 nM) | B2 |
| no binding (tested: 100 nM) | B3 |
| no binding (tested: 100 nM) | B4 |
| no binding (tested: 100 nM) | B5 |
| no binding (tested: 100 nM) | B6 |
